For six variants, ratio to parent (fold difference) results are on record in publication PMC12098869, “An mRNA-display derived cyclic peptide scaffold reveals the substrate binding interactions of an N-terminal cysteine oxidase” (Nature Communications, 2025).

First the molecules themselves.
B1: 2-aminoethanethiol dioxygenase (ADO), full-length human, N-terminally His-tagged and biotinylated (pQE80L-Navi-ADO) [modified: biotin (biotinylated during expression, 0.2 mM biotin added); biotin (biotinylated during … (parent)
chain 1: CKGLAALPHSCLER
chain 2: MPRDNMASLIQRIARQACLTFRGSGGGRGASDRDAASGPEAPMQPGFPENLSKLKSLLTQLRAEDLNIAPRKATLQPLPPNLPPVTYMHIYETDGFSLGVFLLKSGTSIPLHDHPGMHGMLKVLYGTVRISCMDKLDAGGGQRPRALPPEQQFEPPLQPREREAVRPGVLRSRAEYTEASGPCILTPHRDNLHQIDAVEGPAAFLDILAPPYDPDDGRDCHYYRVLEPVRPKEASSSACDLPREVWLLETPQADDFWCEGEPYPGPKVFP
B2: 2-aminoethanethiol dioxygenase (ADO), full-length human, N-terminally His-tagged and biotinylated (pQE80L-Navi-ADO) [modified: biotin (biotinylated during expression, 0.2 mM biotin added); biotin (biotinylated during … (parent)
chain 1: CFPKVLSDDMKKLK
chain 2: B1 chain 2

One assay covers variants of B1. Briefly: SPR. The following applies: with RGS5_(2-15), parent: 1, read off a plot.
Regarding chain 2 D206N, the ratio to parent (fold difference) is -4.
As to chain 2 Y212A, the ratio to parent (fold difference) was 110.
On to chain 2 Y212F, for which the ratio to parent (fold difference) came to 39.

Variants of B2 are the subject of the next assay. The experiment in a line: SPR. To be noted: with IL32_(2-15), parent: 1, read off a plot.
As to chain 2 D206N, the ratio to parent (fold difference) is -7.
Take chain 2 Y212A: the ratio to parent (fold difference) turned out to be 60.
Take chain 2 Y212F: the ratio to parent (fold difference) is 19.
